Assay results from patent US20090099029A1, “Methods and substrates for conducting assays” (Invitrogen Corporation, priority 2005, published 2009).

B1: EPHB1 (protein)
chain: SRKRAYSKEAVYSDKLQHYSTGRGSPGMKIYIDPFTYEDPNEAVREFAKEIDVSFVKIEEVIGAGEFGEVYKGRLKLPGKREIYVAIKTLKAGYSEKQRRDFLSEASIMGQFDHPNIIRLEGVVTKSRPVMIITEFMENGALDSFLRQNDGQFTVIQLVGMLRGIAAGMKYLAEMNYVHRDLAARNILVNSNLVCKVSDFGLSRYLQDDTSDPTYTSSLGGKIPVRWTAPEAIAYRKFTSASDVWSYGIVMWEVMSFGERPYWDMSNQDVINAIEQDYRLPPPMDCPAALHQLMLDCWQKDRNSRPRFAEIVNTLDKMIRNPASLKTVATITAVPSQPLLDRSIPDFTAFTTVDDWLSAIKMVQYRDSFLTAGFTSLQLVTQMTSEDLLRIGITLAGHQKKILNSIHSMRVQISQSPTAMA
modifications: left off: a dimerising Fc or GST
B2: PRKCE (protein)
chain: MVVFNGLLKIKICEAVSLKPTAWSLRHAVGPRPQTFLLDPYIALNVDDSRIGQTATKQKTNSPAWHDEFVTDVCNGRKIELAVFHDAPIGYDDFVANCTIQFEELLQNGSRHFEDWIDLEPEGRVYVIIDLSGSSGEAPKDNEERVFRERMRPRKRQGAVRRRVHQVNGHKFMATYLRQPTYCSHCRDFIWGVIGKQGYQCQVCTCVVHKRCHELIITKCAGLKKQETPDQVGSQRFSVNMPHKFGIHNYKVPTFCDHCGSLLWGLLRQGLQCKVCKMNVHRRCETNVAPNCGVDARGIAKVLADLGVTPDKITNSGQRRKKLIAGAESPQPASGSSPSEEDRSKSAPTSPCDQEIKELENNIRKALSFDNRGEEHRAASSPDGQLMSPGENGEVRQGQAKRLGLDEFNFIKVLGKGSFGKVMLAELKGKDEVYAVKVLKKDVILQDDDVDCTMTEKRILALARKHPYLTQLYCCFQTKDRLFFVMEYVNGGDLMFQIQRSRKFDEPRSRFYAAEVTSALMFLHQHGVIYRDLKLDNILLDAEGHCKLADFGMCKEGILNGVTTTTFCGTPDYIAPEILQELEYGPSVDWWALGVLMYEMMAGQPPFEADNEDDLFESILHDDVLYPVWLSKEAVSILKAFMTKNPHKRLGCVASQNGEDAIKQHPFFKEIDWVLLEQKKIKPPFKPRIKTKRDVNNFDQDFTREEPVLTLVDEAIVKQINQEEFKGFSYFGEDLMP
B3: EPHA8 (protein)
chain: KKRHCGYSKAFQDSDEEKMHYQNGQAPPPVFLPLHHPPGKLPEPQFYAEPHTYEEPGRAGRSFTREIEASRIHIEKIIGSGDSGEVCYGRLRVPGQRDVPVAIKALKAGYTERQRRDFLSEASIMGQFDHPNIIRLEGVVTRGRLAMIVTEYMENGSLDTFLRTHDGQFTIMQLVGMLRGVGAGMRYLSDLGYVHRDLAARNVLVDSNLVCKVSDFGLSRVLEDDPDAAYTTTGGKIPIRWTAPEAIAFRTFSSASDVWSFGVVMWEVLAYGERPYWNMTNRDVISSVEEGYRLPAPMGCPHALHQLMLDCWHKDRAQRPRFSQIVSVLDALIRSPESLRATATVSRCPPPAFVRSCFDLRGGSGGGGGLTVGDWLDSIRMGRYRDHFAAGGYSSLGMVLRMNAQDVRALGITLMGHQKKILGSIQTMRAQLTSTQGPRRHL
modifications: left off: a dimerising Fc or GST
B4: PHKG2 (protein)
chain: MTLDVGPEDELPDWAAAKEFYQKYDPKDVIGRGVSSVVRRCVHRATGHEFAVKIMEVTAERLSPEQLEEVREATRRETHILRQVAGHPHIITLIDSYESSSFMFLVFDLMRKGELFDYLTEKVALSEKETRSIMRSLLEAVSFLHANNIVHRDLKPENILLDDNMQIRLSDFGFSCHLEPGEKLRELCGTPGYLAPEILKCSMDETHPGYGKEVDLWACGVILFTLLAGSPPFWHRRQILMLRMIMEGQYQFSSPEWDDRSSTVKDLISRLLQVDPEARLTAEQALQHPFFERCEGSQPWNLTPRQRFRVAVWTVLAAGRVALSTHRVRPLTKNALLRDPYALRSVRHLIDNCAFRLYGHWVKKGEQQNRAALFQHRPPGPFPIMGPEEEGDSAAITEDEAVLVLG
modifications: left off: small tags and cut ends
B5: EPHB2 (protein)
chain: CNRRGFERADSEYTDKLQHYTSGHMTPGMKIYIDPFTYEDPNEAVREFAKEIDISCVKIEQVIGAGEFGEVCSGHLKLPGKREIFVAIKTLKSGYTEKQRRDFLSEASIMGQFDHPNVIHLEGVVTKSTPVMIITEFMENGSLDSFLRQNDGQFTVIQLVGMLRGIAAGMKYLADMNYVHRDLAARNILVNSNLVCKVSDFGLSRFLEDDTSDPTYTSALGGKIPIRWTAPEAIQYRKFTSASDVWSYGIVMWEVMSYGERPYWDMTNQDVINAIEQDYRLPPPMDCPSALHQLMLDCWQKDRNHRPKFGQIVNTLDKMIRNPNSLKAMAPLSSGINLPLLDRTIPDYTSFNTVDEWLEAIKMGQYKESFANAGFTSFDVVSQMMMEDILRVGVTLAGHQKKILNSIQVMRAQMNQIQSVEV
modifications: left off: a dimerising Fc or GST
B6: PLK3 (protein)
chain: SGRTYLKGRLLGKGGFARCYEATDTETGSAYAVKVIPQSRVAKPHQREKILNEIELHRDLQHRHIVRFSHHFEDADNIYIFLELCSRKSLAHIWKARHTLLEPEVRYYLRQILSGLKYLHQRGILHRDLKLGNFFITENMELKVGDFGLAARLEPPEQRKKTICGTPNYVAPEVLLRQGHGPEADVWSLGCVMYTLLCGSPPFETADLKETYRCIKQVHYTLPASLSLPARQLLAAILRASPRDRPSIDQILRHDFFTKGYTPDRLPISSCVTVPDLTPPNPA
modifications: left off: a dimerising Fc or GST
B7: PRKCZ (protein)
chain: MPSRTGPKMEGSGGRVRLKAHYGGDIFITSVDAATTFEELCEEVRDMCRLHQQHPLTLKWVDSEGDPCTVSSQMELEEAFRLARQCRDEGLIIHVFPSTPEQPGLPCPGEDKSIYRRGARRWRKLYRANGHLFQAKRFNRRAYCGQCSERIWGLARQGYRCINCKLLVHKRCHGLVPLTCRKHMDSVMPSQEPPVDDKNEDADLPSEETDGIAYISSSRKHDSIKDDSEDLKPVIDGMDGIKISQGLGLQDFDLIRVIGRGSYAKVLLVRLKKNDQIYAMKVVKKELVHDDEDIDWVQTEKHVFEQASSNPFLVGLHSCFQTTSRLFLVIEYVNGGDLMFHMQRQRKLPEEHARFYAAEICIALNFLHERGIIYRDLKLDNVLLDADGHIKLTDYGMCKEGLGPGDTTSTFCGTPNYIAPEILRGEEYGFSVDWWALGVLMFEMMAGRSPFDIITDNPDMNTEDYLFQVILEKPIRIPRFLSVKASHVLKGFLNKDPKERLGCRPQTGFSDIKSHAFFRSIDWDLLEKKQALPPFQPQITDDYGLDNFDTQFTSEPVQLTPDDEDAIKRIDQSEFEGFEYINPLLLSTEESV

Tested on: kinases of Table 6 on Myelin Basic Protein (MBP)
Assay: Kinase assay using MBP substrate, ProQ Diamond stain (Table 6)
Format: biochemical
Settings: kinase printed on MBP-coated slide; 20 uM ATP, 30° C.; ProQ Diamond Microarray Stain; graded Strong/Weak/Negative
How it was run: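 Reactions ran at 30° C. with 20 uM ATP, 4 mM MgCl2 and 5% DMSO in HEPES pH 7.5, inhibitor added or omitted. Kinases had been arrayed onto slide-bound dephosphorylated bovine MBP; phospho-signal read after ProQ Diamond staining.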

Molecule	MBP Kinase Activity
B1	Strong
B2	Strong
B3	Weak
B4	Negative
B5	Strong
B6	Negative
B7	Strong
